Experimental data taken from PMC5788864.

Key:
[1] = target: Zika virus NS5 RNA-dependent polymerase (RdRp) domain, amino acids 275-903, strain FSS13025, HA-tag (Zika virus strain FSS13025); test: co-IP
[2] = target: Zika virus NS5 methyltransferase (MTase) domain, amino acids 1-264, strain FSS13025, HA-tag (Zika virus strain FSS13025); test: co-IP

B1: interferon regulatory factor 3 (IRF3), endogenous (natural protein)
chain: MGTPKPRILPWLVSQLDLGQLEGVAWVNKSRTRFRIPWKHGLRQDAQQEDFGIFQAWAEATGAYVPGRDKPDLPTWKRNFRSALNRKEGLRLAEDRSKDPHDPHKIYEFVNSGVGDFSQPDTSPDTNGGGSTSDTQEDILDELLGNMVLAPLPDPGPPSLAVAPEPCPQPLRSPSLDNPTPFPNLGPSENPLKRLLVPGEEWEFEVTAFYRGRQVFQQTISCPEGLRLVGSEVGDRTLPGWPVTLPDPGMSLTDRGVMSYVRHVLSCLGGGLALWRAGQWLWAQRLGHCHTYWAVSEELLPNSGHGPDGEVPKDKEGGVFDLGPFIVDLITFTEGSGRSPRYALWFCVGESWPQDQPWTKRLVMVKVVPTCLRALVEMARVGGASSLENTVDLHISNSHPLSLTSDQYKAYLQDLVEGMDFQGPGES
percent of the full-length NS5 binding activity to IRF3 [1]: 51% | percent of the full-length NS5 binding activity to IRF3 [2]: 82%
